Assay results: publication PMC3326314 (Nucleic Acids Research, 2011)
Changes are numbered by the printed parent chain.

Assays:
Rap1 WT (Rap1-fl) = target: T1, Rap1 WT (Rap1-fl) (Saccharomyces cerevisiae, UniProt P11938 1-827); test: SAXS and AUC
T1 sequence: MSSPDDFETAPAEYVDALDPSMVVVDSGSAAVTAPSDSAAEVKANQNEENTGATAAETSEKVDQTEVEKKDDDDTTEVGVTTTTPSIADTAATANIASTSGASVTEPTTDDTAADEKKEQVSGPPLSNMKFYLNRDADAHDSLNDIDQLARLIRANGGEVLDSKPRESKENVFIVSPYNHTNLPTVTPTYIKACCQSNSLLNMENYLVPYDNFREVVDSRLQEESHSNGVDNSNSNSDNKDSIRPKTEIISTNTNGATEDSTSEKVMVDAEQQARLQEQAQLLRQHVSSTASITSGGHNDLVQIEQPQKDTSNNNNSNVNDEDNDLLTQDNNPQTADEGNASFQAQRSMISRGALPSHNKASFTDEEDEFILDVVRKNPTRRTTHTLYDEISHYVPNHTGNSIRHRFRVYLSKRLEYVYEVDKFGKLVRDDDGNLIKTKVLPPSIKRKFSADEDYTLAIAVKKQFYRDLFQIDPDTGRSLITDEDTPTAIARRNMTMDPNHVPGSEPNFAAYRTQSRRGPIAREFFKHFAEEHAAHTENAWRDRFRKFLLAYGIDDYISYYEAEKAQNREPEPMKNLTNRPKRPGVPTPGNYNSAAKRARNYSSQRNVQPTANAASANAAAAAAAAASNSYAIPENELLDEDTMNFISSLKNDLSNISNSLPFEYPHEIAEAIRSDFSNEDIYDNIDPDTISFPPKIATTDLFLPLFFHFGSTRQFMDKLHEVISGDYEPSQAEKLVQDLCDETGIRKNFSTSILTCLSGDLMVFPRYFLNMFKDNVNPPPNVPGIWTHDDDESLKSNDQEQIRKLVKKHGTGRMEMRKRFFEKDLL

Rap1[358-827] [1] = target: T2, Rap1[358-827] (Saccharomyces cerevisiae, UniProt P11938 358-827); test: SAXS and AUC
T2 sequence: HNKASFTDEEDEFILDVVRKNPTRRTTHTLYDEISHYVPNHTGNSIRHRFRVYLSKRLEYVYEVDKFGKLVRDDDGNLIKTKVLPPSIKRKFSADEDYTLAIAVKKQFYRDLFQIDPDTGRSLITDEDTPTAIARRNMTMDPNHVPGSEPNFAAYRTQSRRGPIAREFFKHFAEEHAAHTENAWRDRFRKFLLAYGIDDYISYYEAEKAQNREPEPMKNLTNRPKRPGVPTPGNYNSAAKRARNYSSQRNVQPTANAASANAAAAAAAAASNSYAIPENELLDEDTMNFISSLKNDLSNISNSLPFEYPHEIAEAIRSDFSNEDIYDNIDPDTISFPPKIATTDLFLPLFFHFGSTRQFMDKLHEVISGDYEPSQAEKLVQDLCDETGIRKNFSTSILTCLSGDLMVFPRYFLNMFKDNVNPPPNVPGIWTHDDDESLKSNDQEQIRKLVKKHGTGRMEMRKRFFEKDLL

Rap1[117-827] = target: T3, Rap1[117-827] (Saccharomyces cerevisiae, UniProt P11938 117-827); test: SAXS and AUC
T3 sequence: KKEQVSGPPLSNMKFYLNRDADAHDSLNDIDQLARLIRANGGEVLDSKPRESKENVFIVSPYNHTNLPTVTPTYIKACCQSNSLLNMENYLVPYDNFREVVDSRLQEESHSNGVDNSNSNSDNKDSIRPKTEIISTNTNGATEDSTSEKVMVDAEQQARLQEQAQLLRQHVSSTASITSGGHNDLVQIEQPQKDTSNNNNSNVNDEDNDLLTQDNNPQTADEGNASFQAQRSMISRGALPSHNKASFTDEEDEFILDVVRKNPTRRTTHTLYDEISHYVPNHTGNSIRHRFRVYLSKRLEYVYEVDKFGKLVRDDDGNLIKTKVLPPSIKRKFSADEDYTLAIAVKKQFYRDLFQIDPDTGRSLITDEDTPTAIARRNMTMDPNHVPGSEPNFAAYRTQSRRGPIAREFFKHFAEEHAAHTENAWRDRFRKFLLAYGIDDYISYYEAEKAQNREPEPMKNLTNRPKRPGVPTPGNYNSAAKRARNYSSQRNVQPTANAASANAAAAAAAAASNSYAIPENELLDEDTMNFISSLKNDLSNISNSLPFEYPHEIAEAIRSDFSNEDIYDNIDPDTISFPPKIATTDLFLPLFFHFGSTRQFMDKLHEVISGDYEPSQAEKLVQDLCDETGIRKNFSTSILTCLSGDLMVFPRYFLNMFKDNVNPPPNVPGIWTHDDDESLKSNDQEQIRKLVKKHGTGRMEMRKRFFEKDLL

Rap1[358-827] [2] = target: T2, Rap1[358-827]; test: X-ray crystallography
Rap1Δ[591-597] = target: T4, Rap1Δ[591-597] (Saccharomyces cerevisiae, UniProt P11938 1-827, del591-597); test: EMSA
T4 sequence: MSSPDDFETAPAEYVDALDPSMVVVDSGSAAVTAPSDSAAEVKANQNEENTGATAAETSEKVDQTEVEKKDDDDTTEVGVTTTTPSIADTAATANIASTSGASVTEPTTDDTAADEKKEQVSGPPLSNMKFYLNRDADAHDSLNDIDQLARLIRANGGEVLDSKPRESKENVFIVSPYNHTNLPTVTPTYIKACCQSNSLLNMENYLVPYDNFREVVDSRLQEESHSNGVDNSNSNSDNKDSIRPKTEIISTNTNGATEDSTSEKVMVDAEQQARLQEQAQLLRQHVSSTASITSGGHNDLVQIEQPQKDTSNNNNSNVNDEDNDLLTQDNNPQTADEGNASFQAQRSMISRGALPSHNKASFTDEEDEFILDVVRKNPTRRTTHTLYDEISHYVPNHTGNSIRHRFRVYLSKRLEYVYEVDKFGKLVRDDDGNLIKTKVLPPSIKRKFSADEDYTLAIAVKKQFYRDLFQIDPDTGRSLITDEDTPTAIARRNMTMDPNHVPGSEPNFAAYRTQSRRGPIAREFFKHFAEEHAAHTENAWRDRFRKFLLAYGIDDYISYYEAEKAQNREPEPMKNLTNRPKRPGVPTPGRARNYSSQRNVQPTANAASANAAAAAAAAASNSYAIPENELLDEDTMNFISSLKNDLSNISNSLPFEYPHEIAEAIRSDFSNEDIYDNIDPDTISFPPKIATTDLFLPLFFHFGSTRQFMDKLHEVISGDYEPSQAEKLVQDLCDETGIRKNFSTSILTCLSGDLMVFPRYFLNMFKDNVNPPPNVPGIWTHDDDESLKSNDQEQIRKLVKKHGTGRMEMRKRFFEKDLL

Rap1[Y592A-K597A] = target: T5, Rap1[Y592A-K597A] (Saccharomyces cerevisiae, UniProt P11938 1-827, Y592A;K597A); test: EMSA
T5 sequence: T1 sequence with Y592A, K597A

Rif2 full length = target: T6, Rif2 full length (UniProt Q06208 1-395); test: NMR titration
T6 sequence (looked up): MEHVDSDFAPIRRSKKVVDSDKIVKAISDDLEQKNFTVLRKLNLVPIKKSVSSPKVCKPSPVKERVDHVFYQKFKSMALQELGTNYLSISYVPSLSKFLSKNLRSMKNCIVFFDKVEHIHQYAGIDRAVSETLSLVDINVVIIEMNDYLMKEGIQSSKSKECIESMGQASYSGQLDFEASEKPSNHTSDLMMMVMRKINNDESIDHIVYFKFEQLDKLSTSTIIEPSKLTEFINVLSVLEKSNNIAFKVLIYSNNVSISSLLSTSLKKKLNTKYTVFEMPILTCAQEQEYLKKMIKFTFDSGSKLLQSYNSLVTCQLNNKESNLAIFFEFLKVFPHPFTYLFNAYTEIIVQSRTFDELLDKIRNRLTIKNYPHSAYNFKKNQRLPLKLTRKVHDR

B1: 20-mer DNA duplex (AUC and SAXS) (dsDNA)
DNA 1: TCCTGGTGTGTGGGTGTGCG
DNA 2: GACGCACACCCACACACCAG
Q: Does B1 bind (Rap1 WT (Rap1-fl))?
A: binds

Q: Does B1 bind (Rap1[358-827] [1])?
A: binds

Q: Does B1 bind (Rap1[117-827])?
A: binds

B2: 31-mer crystallography duplex (dsDNA)
DNA 1: ACCTGGTGTGTGGGTGTTGTGTGGTGTTCAC
DNA 2: GTGTGAACACCACACAACACCCACACACCAG
Q: Does B2 bind (Rap1[358-827] [2])?
A: binds

B3: 21-mer telomeric DNA duplex (ITC and EMSA) (dsDNA)
DNA 1: TCCTGGTGTGTGGGTGTGCGG
DNA 2: GCACACCCACACACCAGGACC
Q: Which results are given for B3?
A: binding result (Rap1Δ[591-597]): binds; binding result (Rap1[Y592A-K597A]): binds

B4: Rap1[675-827] (domain or fragment, S. cerevisiae, UniProt P11938 675-827, looked up)
chain: SDFSNEDIYDNIDPDTISFPPKIATTDLFLPLFFHFGSTRQFMDKLHEVISGDYEPSQAEKLVQDLCDETGIRKNFSTSILTCLSGDLMVFPRYFLNMFKDNVNPPPNVPGIWTHDDDESLKSNDQEQIRKLVKKHGTGRMEMRKRFFEKDLL
Q: Does B4 bind (Rif2 full length)?
A: binds
